Assay results: article doi:10.1101/2024.05.28.596263

Key:
Test in all cases: cryo-EM structure
[1] = target: dephosphorylated CFTR of the P-ATP + AMP-PNP sample (human) (UniProt P13569)
[2] = target: fully-phosphorylated CFTR carrying the ATP-hydrolysis-disrupting E1371Q mutation (human) (UniProt P13569)
[3] = target: recombinant human CFTR (cystic fibrosis transmembrane conductance regulator), wild type, dephosphorylated (human) (UniProt P13569)

stoichiometry N (PKA-C per CFTR) [1]: 1
stoichiometry N (PKA-C per CFTR) [2]: 1
stoichiometry N (PKA-C per CFTR) [3]: 2
Substance: protein kinase A catalytic subunit purified from bovine heart (from UniProt P00517 1-351) (enzyme)
